In US20150147342A1 (published 2015):
Positions count from the first letter of the chain named.

B1: H1H742N (antibody, V domains shown)
VH: DVQLLESGGDLVQPGGSLRLSCEASGFTFRNYVMIWVRQAPGKGLEWVSGISNSGGTTHYTDSVKGRFTISRDNSKNTLYLQINSLRAEDTAVYYCAKGYLDTSLIEGNWFDPWGQGTLVTVSS
VL: NIVMTQSPLSLPVTPGEPASISCRSSQSLLHSNGFNYLNWFLQKPGQSPQLLIYLGSNRASGVPDKFSGSGSGTDFTLNINRVEAEDVGIYFCMQTLQTPLTFGGGTKVEIK
B2: H1H743N (antibody, V domains shown)
VH: EVQLLESGGGLVQPGGSLRLSCAASGFTFRKYAMSWVRQAPGKGLEWVSVISVSGGNTYYADSVKGRFTISRDNSKNTLYLQLNSLRAEDTAVYYCAKDLTDIVLMVYVDYWGQGTLVTVSS
VL: DIQMTQSPSSVSASVGDRVTITCRASQDIDRWLAWYQQKPGKAPKLLIYAASSLQSGVPSRFSGSGSGTDFTLTISTLQPEDFATYYCQQANSLPFTFGGGTKVEIK
B3: H1H706P (antibody, V domains shown)
VH: QVQLVESGGGVVQPGRSLRLSCAASGFTFSSYGMHWVRQAPDKGLEWVAVKWDDGSNKYYADSVKGRFTISRDNSKNTLYLQMNSLRAEDTAVYYCAREGPYDFYSGYGAFDIWGQGTMVTVSS
VL: DIQMTQSPSSLSASVGDRVTITCRASQGISNYLAWFQQKPGKAPKSLIYAASSLQSGVPSKFSGSGSGTDFTLTISSLQPEDFATYYCQQYNSYPRTFGQGTKVEIK
B4: H1H707P (antibody, V domains shown)
VH: B3 VH
VL: not shown
B5: H1H691P (antibody, V domains shown)
VH: EVQLVESGGGLVQPGRSLRLSCAASGFTFDDYAMHWVRQAPGKGLEWVSGISWNSGDIGYADSVKGRFTISRDNAKNSLYLQMNSLRAQDTALYYCAKAYGDYYYFYGMDVWGQGTTVTVS
VL: EIVLTQSPGTLSLSPGERATLSCRASQSVSSSYLAWYQQKPGQAPRLLIFSASSRATGIPDRFSGSGSGTDFTLTISRLEPEDFAVYYCQQYDNSLTFGGGTKVEIK
B6: H1H728N (antibody, V domains shown)
VH: EVQLVESGGDLVQPGGSLRLSCTASGFTFSKYWMTWVRQAPGRGLEWVANIKEDGNEKYFLDSVKGRFTISRDNAKDLLFLQMNSLRGEDTAVYYCVRDRGIEVAGPFDYWGQGTLVTVSS
VL: DIQMTQSPSTLSASVGDRVTVTCRASQTIINWLAWYQQKPGKAPKLLISKASSLESGVPSRFSGSGSGTEFTLTISSLQPDDFATYYCQQYNRYWTFGQGTMVEIK
B7: H1H730N (antibody, V domains shown)
VH: EVQLVESGGGLVQPGGSLRLSCAASGFAFRSYWMTWVRQAPGKGLEWVANIQQDGNDKYYVDSVKGRFTISRDNAKNSLYLQMNSLRAEDTAVYYCARDTGIAEAGPFDYWGQGTLVTVSS
VL: B6 VL with T20S, V21I, N31S, K45R, S49Y, S76N, M102K
B8: H1H690P (antibody, V domains shown)
VH: EVQLVESGGGLVQPGESLRLSCAASGFTFSSYAMSWVRQGPGKGLEWVSSITGSGDTTYYADSVKGRFTISRDNSKNTLYLHMNSLRAEDTAVYYCAKDFLDYSTYLAFDLWGQGTMVTVSS
VL: EIVLTQSPATLSLSPGERATLSCRASQSVSSYLTWYQQKPGQAPRLLSYDASNRATGIPARFSGSGSGTDFTLTISSLEPEDFAVYYCQQRSNWPLTFGGGTKVEIK
B9: H1H704P (antibody, V domains shown)
VH: QVQLVESGGDVVQPGRSLRLSCAASGFTFSSYGMHWVRQAPGKGLEWVAIIWYDGSNKYYADSVKGRFTISRDNSKNTLYLQMNSLRVEDTAVYSCARDFSISSRHFDYWGQGTLVTVSS
VL: DIQMTQSPSSLSASVGDRVTITCRASQAINNYLAWFQQKPGKAPKSLIYATSNLQSGVPSQFSGSGSGTDYTLTISSLQPEDFATYYCQQYYIYPITFGQGTRLEIK
B10: H1H750N (antibody, V domains shown)
VH: QVKLVESGGGVVQPGRSLRVSCAASGFTFSSYGMHWVRQAPGKGLEWLAIIWYDGDNKYYSDSVKGRFTISRDNSKNTLYLQMNSLRAEDTAEYYCVRDASIASRFLDYWGQGTLVTVSS
VL: DIQMTQSPSSLSASIGDRVTITCRATQDINNYLAWFQQKPGKAPKSLIYATSNLQSGVPSKFSGSGSGTDYTLTISSLQPEDFSTYYCQQYHSYPLTFGGGTKVEIK
B11: H1H749N (antibody, V domains shown)
VH: QVQLVESGGGVVQPGRSLRLSCAASGFTFSSYGMHWVRQAPGKGLEWVAVIWYDEFNKYYADSVKGRFTISRDNSKNTLYLQMNSLRAEDTAVYYCARERESGYSYGFDYWGQGTLVTVSS
VL: EIVMTQSPATLSVSPGERATLSCRAGQSVSSNLAWYQQKPGQAPRLLIYGASTRATGIPARFSGSGSGTEFTLTISSLQSEDFAVYYCQQYNNWWTFGQGTKVEIK
B12: H1H724N (antibody, V domains shown)
VH: QVQLVESGGGVVQPGRSLRLSCAASGFTLSNYGMHWVRQAPGKGLEWVAVIWHDGSNTYYADSVKGRFTISRDNSKNTLYLQMNSLRAEDTAVYYCTREGLDFWSGYYPNWFDPWGQGTLVTVSS
VL: DIQMTQSPSSLSASVGDRVTITCRASQGIRNDLGWYQQKPGKAPKRLIYAASNLQGGVPSRFSGSGSGTEFTLTISSLQPEDFAAYYCLQHNIYPLTFGGGTKVEIK
B13: H1H732N (antibody, V domains shown)
VH: EVQLVESGGGLVRPGGSLRLSCAASGFTFTNAWMSWVRQAPGKGLEWIGQIKSKTDGGTIDYAAPVKGRFTVSRDDSENTLFLQMNSLKTEDTAVYYCAGNWNYVDFDYWGQGTLVTVSS
VL: B12 VL with G28D, N53S, A85T, I93S, L96F, G100P, E105D

Target: T1, Dimeric fibrinogen-like domain of mouse (Mus musculus) Ang-2 conjugated to human IgG1 (mouse (Mus musculus))
T1 construct: also called Dimeric Mouse Ang-2FD; Mouse Ang-2FD-hFc
Experiment: SPR, hIgG1 antibody captured, room temp
Method: (§1) Antibody was captured on a goat anti-mouse IgG polyclonal antibody surface, a goat anti-human κ polyclonal antibody (Southern Biotech, Birmingham, Ala.) surface or a goat anti-human IgG polyclonal antibody (Jackson Immuno Research Lab, West Grove, Pa.) surface created through direct amine coupling to a BIACORE™ CM5 sensor chip to form a captured antibody surface. […] Antigen-antibody binding and dissociation were monitored in real time at room temperature. Kinetic analysis was performed to calculate KD and half-life of antigen/antibody complex dissociation.
(§2) The above experiment was repeated using selected purified anti-Ang-2 antibodies cloned onto human IgG1.

T1 sequence (chain, as listed by the source limits assumed): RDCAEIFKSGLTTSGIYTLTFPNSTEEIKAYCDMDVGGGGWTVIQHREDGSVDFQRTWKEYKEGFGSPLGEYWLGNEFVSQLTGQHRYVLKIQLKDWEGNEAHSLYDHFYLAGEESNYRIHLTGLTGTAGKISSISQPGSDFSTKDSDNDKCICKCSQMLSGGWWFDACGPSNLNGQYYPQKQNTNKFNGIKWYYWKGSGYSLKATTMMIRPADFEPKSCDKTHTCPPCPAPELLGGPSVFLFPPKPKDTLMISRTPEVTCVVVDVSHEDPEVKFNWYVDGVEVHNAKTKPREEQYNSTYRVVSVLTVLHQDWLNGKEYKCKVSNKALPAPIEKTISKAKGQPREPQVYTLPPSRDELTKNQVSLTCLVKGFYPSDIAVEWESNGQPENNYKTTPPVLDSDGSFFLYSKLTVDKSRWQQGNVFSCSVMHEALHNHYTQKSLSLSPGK

Kd [nM]	T1/2 [h]	Binder
0.276	0.967	B1
0.124	3.88	B2
0.357	0.783	B3
0.328	0.573	B4
0.22	0.73	B5
5.76	0.333	B6
0.0971	1.5	B7
0.0913	1.75	B8
0.484	1.03	B9
0.218	2.02	B10
0.177	1.6	B11
0.185	1.4	B12
0.529	0.85	B13

Target: T2, Dimeric fibrinogen-like domain of monkey (Macca fascicularis) Ang-2 conjugated to human IgG1 (monkey (Macca fascicularis))
T2 construct: also called Dimeric Monkey Ang-2FD; Monkey Ang-2FD-hFc
Experiment: SPR, hIgG1 antibody captured, room temp
Method: as §1, §2

T2 sequence (chain, as listed by the source limits assumed): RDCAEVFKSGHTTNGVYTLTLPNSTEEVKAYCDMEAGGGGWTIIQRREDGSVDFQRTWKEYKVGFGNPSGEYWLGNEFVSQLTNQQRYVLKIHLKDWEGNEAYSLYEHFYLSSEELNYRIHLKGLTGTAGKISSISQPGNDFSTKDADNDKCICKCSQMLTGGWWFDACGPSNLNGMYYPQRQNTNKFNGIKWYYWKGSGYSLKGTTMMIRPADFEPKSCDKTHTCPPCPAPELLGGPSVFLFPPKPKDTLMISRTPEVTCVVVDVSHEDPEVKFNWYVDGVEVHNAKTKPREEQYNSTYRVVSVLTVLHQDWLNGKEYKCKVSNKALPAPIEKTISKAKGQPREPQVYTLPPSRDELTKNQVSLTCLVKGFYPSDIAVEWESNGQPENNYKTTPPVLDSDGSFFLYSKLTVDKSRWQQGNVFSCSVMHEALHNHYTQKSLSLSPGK

Kd [nM]	T1/2 [h]	Binder
0.683	1.55	B1
0.0965	13	B2
0.164	0.888	B3
0.283	0.372	B4
0.29	0.683	B5
2	1.28	B6
3.4	1.45	B7
0.0556	3.25	B8
0.818	0.558	B9
0.199	4.07	B10
0.407	2.38	B11
0.239	2.88	B12
0.439	1.97	B13

Target: T3, Dimeric fibrinogen-like domain of human Ang-2 conjugated to human IgG1 (human)
T3 construct: also called Dimeric Human Ang-2FD; Human Ang-2FD-hFc
Experiment: SPR, hIgG1 antibody captured, room temp
Method: as §1, §2

T3 sequence (chain, as listed by the source limits assumed): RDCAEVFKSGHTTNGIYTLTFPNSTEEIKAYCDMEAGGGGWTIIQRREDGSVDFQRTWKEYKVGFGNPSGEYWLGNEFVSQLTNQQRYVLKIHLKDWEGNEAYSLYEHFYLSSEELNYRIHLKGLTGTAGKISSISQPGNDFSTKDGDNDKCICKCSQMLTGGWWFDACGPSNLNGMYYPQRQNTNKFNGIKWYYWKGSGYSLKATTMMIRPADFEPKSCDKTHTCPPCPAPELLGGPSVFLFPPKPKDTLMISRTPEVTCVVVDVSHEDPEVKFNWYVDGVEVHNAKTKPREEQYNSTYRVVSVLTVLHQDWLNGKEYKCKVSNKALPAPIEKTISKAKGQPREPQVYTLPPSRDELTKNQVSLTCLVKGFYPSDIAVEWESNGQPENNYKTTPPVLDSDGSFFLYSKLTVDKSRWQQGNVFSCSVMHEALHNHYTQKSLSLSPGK

Kd [nM]	T1/2 [h]	Binder
0.186	1.08	B1
0.0882	4.23	B2
0.201	0.84	B3
0.262	0.443	B4
0.22	0.642	B5
0.162	1.35	B6
0.234	1.03	B7
0.079	2.1	B8
0.331	1.43	B9
0.164	2.12	B10
0.118	1.82	B11
0.115	1.78	B12
0.386	0.95	B13
